Values belong to the binder of their own block, whether it stands above or below them. Ends that are not written are not given here.
Experiments:
[1] = target: T1, 31-38 (ends and bridges not checked); assay: SPR (Biacore 3000), solution competition with the peptide for antibody binding to immobilised full-length PACAP38; % inhibition
T1 construct: also called PACAP38 peptide fragment 31-38; peptide No. 5
T1 peptide: YKQRVKNK
Description: (§1) The binding epitopes of anti-PACAP antibodies were evaluated by using the Biacore 3000 biosensor-based instrument (GE Healthcare USA). The Biacore 3000 instrument utilizes surface plasmon resonance (SPR) technology to measure mass increase on the sensor-chip surface. The binding interactions are measured in real-time and recorded as Response Units (RU). Each binding profile (cycle) is stored in a “sensorgram” in real-time. Generally, Biacore technology entails immobilizing a ligand of interest on to a flow-cell of the sensor-chip via a coupling chemistry. The analyte (e.g. putative binding partner to the ligand of interest) is injected across the immobilized ligand allowing it to bind to the ligand-immobilized surface. The magnitude of the response is directly proportional to the mass increase on the immobilized surface due to the binding of the analyte.
(§2) In this experiment, various peptide fragments of PACAP38 were incubated with each of the six antibodies (mAb1, mAb2, mAb3, mAb4, mAb5, and mAb6) described in Example 2 and evaluated for their ability to inhibit binding of the antibodies to full-length PACAP38 immobilized on the sensor-chip. The binding epitopes for each of the antibodies were deduced from the set of peptides that were able to inhibit the binding of each antibody to full-length PACAP38.
(§3) Each of the six anti-PACAP antibodies was incubated at a 1:200 molar ratio (Ab: peptide fragment) with each of the peptide fragments in Table 9 at an ambient temperature for 2 hours prior to analysis. […] A second control containing 6.5 nM antibody was prepared in sample diluent to be used as the untreated control sample for each antibody. Full-length PACAP38, buffer, and each peptide fragment were also tested to evaluate non-specific binding to the immobilized PACAP38 surface.

[2] = target: T2, PACAP38 peptide fragment 6-20 (human); assay: as above
T2 construct: also called peptide No. 13
T2 peptide: FTDSYSRYRKQMAVK
Description: as §1, §2, §3

[3] = target: T3, full-length human PACAP38 (human, not fully specified); assay: ELISA screen of B-cell culture supernatant; full-length PACAP38 at 10 ng/mL
T3 construct: Corresponds to amino acids 132-169 of the precursor (NP 001108.2); The description says natural PACAP38 is C-terminally amidated; also called Full-length PACAP38
T3 peptide: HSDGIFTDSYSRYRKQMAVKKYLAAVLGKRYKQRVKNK
Text: (§4) Rabbits were immunized with human PACAP38 peptide ([…]; SEQ ID NO: 1). Monoclonal antibodies were generated from the immunized rabbits using the Selected Lymphocyte Antibody Method (SLAM) as described in Babcook et al., Proc. Natl. Acad. Sci. USA, Vol. 93: 7843-7848, 1996. Briefly, B cells were harvested from spleens from the immunized rabbits and expanded in culture. The supernatant from the expanded B-cell cultures was initially screened for binding to an amino terminal PACAP38 peptide ([…]; SEQ ID NO: 5) and a carboxy terminal PACAP38 peptide ([…]; SEQ ID NO: 4) using an ELISA assay. From the initial screen, 2,935 N-terminal and/or C-terminal binders were identified. The affinity of these antibodies for full-length human PACAP38 (SEQ ID NO: 1) was assessed by ELISA assay.

[4] = target: T4, carboxy terminal PACAP38 peptide (amino acids 28-38) (human, ends and bridges not checked); assay: ELISA screen of B-cell culture supernatant
T4 construct: also called C-terminal Peptide; C-terminal PACAP peptide
T4 peptide: GKRYKQRVKNK

[5] = target: T5, vasoactive intestinal peptide (VIP) (human); assay: ELISA screen of B-cell culture supernatant
T5 construct: also called human VIP
T5 peptide: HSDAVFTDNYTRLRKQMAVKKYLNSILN

[6] = target: T4, carboxy terminal PACAP38 peptide (amino …); assay: ELISA screen of B-cell culture supernatant; C-terminal peptide at 500 ng/mL
Text: as §4

[7] = target: T6, PACAP38 peptide fragment 6-38 (human, not fully specified); assay: SPR (Biacore 3000), solution competition: antibody pre-incubated 2 h with the peptide at 1:200 molar ratio (Ab:peptide), then injected over immobilised full-length PACAP38; readout % inhibition of antibody binding (filing counts >50 % as reactive)
T6 construct: also called peptide No. 11
T6 peptide: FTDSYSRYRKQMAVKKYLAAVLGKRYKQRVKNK
Description: as §1, §2, §3

[8] = target: T7, PACAP38 peptide fragment 6-37 (human); assay: as above
T7 construct: also called peptide No. 3
T7 peptide: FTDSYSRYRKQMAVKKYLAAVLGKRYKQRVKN
Description: as §1, §2, §3

[9] = target: T8, PACAP38 peptide fragment 6-36 (human); assay: as above
T8 construct: also called peptide No. 12
T8 peptide: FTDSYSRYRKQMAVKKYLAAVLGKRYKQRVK
Description: as §1, §2, §3

[10] = target: T5, vasoactive intestinal peptide (VIP); assay: ELISA screen of B-cell culture supernatant; VIP at 100 ng/mL
[11] = target: T9, amino terminal PACAP38 peptide (amino acids 1-13) (human); assay: ELISA screen of B-cell culture supernatant; N-terminal peptide at 500 ng/mL; ELISA screen of B-cell culture supernatant (Example 1); N-terminal peptide 500 ng/mL; optical density
T9 construct: also called N-terminal Peptide; N-terminal PACAP peptide
T9 peptide: HSDGIFTDSYSRY
Text: as §4

[12] = target: T10, human PACAP27 (human, not fully specified); assay: cell-based or functional assay
T10 peptide: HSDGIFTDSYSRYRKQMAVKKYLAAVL

[13] = target: T3, full-length human PACAP38; assay: cell-based or functional assay
[14] = target: T11, PACAP38 peptide fragment 14-38 (human, not fully specified); assay: SPR (Biacore 3000), solution competition: antibody pre-incubated 2 h with the peptide at 1:200 molar ratio (Ab:peptide), then injected over immobilised full-length PACAP38; readout % inhibition of antibody binding (filing counts >50 % as reactive)
T11 construct: also called peptide No. 7
T11 peptide: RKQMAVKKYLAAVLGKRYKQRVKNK
Description: as §1, §2, §3

Optical Density [3]: 3.21 OD
binding result [4]: no binding (tested: 500 ng/mL)
binding result [5]: no binding (tested: 100 ng/mL)
Optical Density [6]: 0.05 OD
binding result [7]: binds
binding result [8]: binds
binding result [9]: binds
Optical Density [10]: 0.12 OD
Optical Density [11]: 1.34 OD
IC50: inhibition of PACAP27 (10 pM)-induced activation of human PAC1 receptor, cAMP assay in SH-SY5Y (CRL-2266) cells, POC versus antibody concentration [12]: 26 nM
IC50: inhibition of PACAP38 (10 pM)-induced activation of human PAC1 receptor, cAMP assay in SH-SY5Y (CRL-2266) cells, POC versus antibody concentration [13]: 1 nM
B1: mAb5 (antibody, V domains shown)
VH: QSVEESGGRLVTPGTPLTLTCTVSGFSLSTYNMCWVRQAPGKGLEWVGFINSDDSAYYASWAKGRFTFSKTSTTVDLKIASPTTEDTATYFCARYDWDYYYSRLDLWGPGTLVTVSS
VL: DIVLTQTPASVSAAVGGTVSISCQSSESVYNNNYLSWFQQKPGQPPKLLIYGASTLASGVPSRFEGSGSGTQFTLTISDVQCDDAATYYCLGDYIIIENIFGGGTEVVVKG
notes: Rabbit monoclonal antibody (SLAM), recombinant; also called monoclonal anti-PACAP antibody 5; 5 (c71)
binding result [1]: no binding (tested: 1:200 molar ratio (Ab:peptide))
binding result [2]: no binding (tested: 1:200 molar ratio (Ab:peptide))

Optical Density [3]: 3.39 OD
binding result [5]: no binding (tested: 100 ng/mL)
Optical Density [6]: 3.74 OD
binding result [7]: binds
binding result [8]: binds
binding result [14]: binds
Optical Density [10]: 0.09 OD
IC50: inhibition of PACAP27 (10 pM)-induced activation of human PAC1 receptor, cAMP assay in SH-SY5Y (CRL-2266) cells, POC versus antibody concentration [12]: > 1 uM
IC50: inhibition of PACAP38 (10 pM)-induced activation of human PAC1 receptor, cAMP assay in SH-SY5Y (CRL-2266) cells, POC versus antibody concentration [13]: 0.4 nM
B2: mAb2 (antibody, V domains shown)
VH: QSLEESGGGLVQPEGSLTLTCTASGFSFNSSSYMCWVRQAPGKGLEWIGCIFTGSSGNTYYATWAQGRFTISKTSTTVTLEMTSLTAADTATYFCARDRAYFLVGYFYATYYFDLWGPGTLVTVSS
VL: DVVMTQTPSPVSAQVGGTVTINCQASESIDSDLSWYQQKPGQPPKLLIYRTFTLESGVPSRFKGSGSGTDYTLTISDLECADAAIYYCQCTDGSSISGSYGWDAFGGGTEVVVKG
notes: Rabbit monoclonal antibody (SLAM), recombinant; also called monoclonal anti-PACAP antibody 2; 2 (c81)
binding result [2]: no binding (tested: 1:200 molar ratio (Ab:peptide))

Optical Density [3]: 3.55 OD
binding result [4]: no binding (tested: 500 ng/mL)
Optical Density [6]: 0.05 OD
binding result [7]: binds
binding result [8]: binds
binding result [9]: binds
binding result [14]: binds
Optical Density [10]: 0.95 OD
Optical Density [11]: 4.24 OD
IC50: inhibition of PACAP27 (10 pM)-induced activation of human PAC1 receptor, cAMP assay in SH-SY5Y (CRL-2266) cells, POC versus antibody concentration [12]: 0.5 nM
IC50: inhibition of PACAP38 (10 pM)-induced activation of human PAC1 receptor, cAMP assay in SH-SY5Y (CRL-2266) cells, POC versus antibody concentration [13]: 0.6 nM
B3: mAb6 (antibody, V domains shown)
VH: QLEESGGGLVQPGASLTLTCTTSGFSLSDNYLCWVRQAPGRGLEWVACIGIVLRSTGATYYASWAEGRFTISKTSPTTVTLEMTSLTAADTATYFCALDLGYGGPLWGPGTLVTVSS
VL: AQVLTQTPASVSAAVGGTVTINCQASQSVYNNKNLAWYQQKPGQPPKLLIYFSSTLASGVPSRFRGSGSGTQFTLTISGVQCGDAATYYCLGEFGSIWAFGGGTEVVVKG
notes: Rabbit monoclonal antibody (SLAM), recombinant; also called monoclonal anti-PACAP antibody 6; 6 (c55)
binding result [1]: no binding (tested: 1:200 molar ratio (Ab:peptide))
binding result [2]: no binding (tested: 1:200 molar ratio (Ab:peptide))

From patent US20180362643A1 (Amgen, published 2018)
